This note sets out measurements from patent US20190016800A1 (NANJING LEADS BIOLABS, published 2019).

Assay [1] addresses T1, Human LAG-3 protein (Cat#LA3-5222, Acrobiosystems) (human, UniProt P18627 23-450).
T1 construct: Bought protein; also called recombinant human LAG-3; LAG3 recombinant protein
T1 sequence: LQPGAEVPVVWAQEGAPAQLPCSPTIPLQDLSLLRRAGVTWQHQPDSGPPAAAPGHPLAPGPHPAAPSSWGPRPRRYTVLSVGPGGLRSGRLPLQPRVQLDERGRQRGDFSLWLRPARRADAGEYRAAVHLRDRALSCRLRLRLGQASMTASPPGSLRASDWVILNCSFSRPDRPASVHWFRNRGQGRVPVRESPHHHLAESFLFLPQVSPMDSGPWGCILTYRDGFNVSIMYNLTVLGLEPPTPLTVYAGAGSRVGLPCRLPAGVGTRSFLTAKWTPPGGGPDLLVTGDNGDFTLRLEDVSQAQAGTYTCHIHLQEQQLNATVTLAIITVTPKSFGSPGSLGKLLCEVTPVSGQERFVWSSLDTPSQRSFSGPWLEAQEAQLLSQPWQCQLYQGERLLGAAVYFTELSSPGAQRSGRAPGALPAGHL
Kind of assay: phage ELISA on coated LAG3. For orientation: ELISA stands for enzyme-linked immunosorbent assay.

The target of assay [2] is T2, human CD4 recombinant protein (Sino Biological) (human, UniProt P01730 26-390, limits assumed).
T2 construct: Bought protein
Kind of assay: ELISA, human CD4 recombinant protein immobilized.

Assay [3] concerns the target T1, Human LAG-3 protein (Cat#LA3-5222, …). Kind of assay: SPR Biacore T200, antibody captured on anti-human IgG (Fc), human LAG-3 injected 6.25-200 nM, 1:1 Langmuir fit.
Assay [4] has as its target T3, Mouse LAG-3 (Acrobiosystems) (mouse, UniProt Q61790 24-442, limits assumed).
T3 construct: Bought protein; also called mouse LAG-3 recombinant protein
T3 sequence (looked up): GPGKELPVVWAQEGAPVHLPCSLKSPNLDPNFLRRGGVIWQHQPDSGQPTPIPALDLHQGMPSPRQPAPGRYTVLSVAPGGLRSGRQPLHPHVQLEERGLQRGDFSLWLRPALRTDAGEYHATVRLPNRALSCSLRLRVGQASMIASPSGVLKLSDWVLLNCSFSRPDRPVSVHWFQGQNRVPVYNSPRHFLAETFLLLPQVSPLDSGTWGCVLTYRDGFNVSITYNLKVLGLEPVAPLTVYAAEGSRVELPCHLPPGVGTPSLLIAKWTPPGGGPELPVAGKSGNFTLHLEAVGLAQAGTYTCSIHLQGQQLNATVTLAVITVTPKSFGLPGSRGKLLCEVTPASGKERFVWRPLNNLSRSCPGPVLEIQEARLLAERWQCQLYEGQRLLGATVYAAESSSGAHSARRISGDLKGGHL
Kind of assay: ELISA, mouse LAG-3 recombinant protein immobilized.

In assay [5] the target is T1, Human LAG-3 protein (Cat#LA3-5222, …). Kind of assay: ELISA, human LAG-3 recombinant protein immobilized, serially diluted antibody, anti-human IgG-HRP, OD450-620.
For assay [6] the target is unchanged. Kind of assay: ELISA blocking assay: human LAG-3 immobilized, antibody mixed with biotin labeled LSECtin, streptavidin-HRP, OD450-620.
Assay [7] has as its target T4, LAG-3 fusion protein comprising human LAG-3 extracellular domain fused to mouse Fc (SinoBiological, … (human; mouse, UniProt P18627 23-450).
T4 construct: Bought fusion protein; not shown: mouse Fc
T4 sequence: T1 sequence
The assay is described as follows: flow cytometry blocking assay: antibody premixed with hLAG-3-mFc, binding of hLAG-3-mFc to MHC class II on Daudi cells read as MFI.

In assay [8] the target is T5, recombinant rhesus monkey LAG-3 protein (Amino acids 1-450 of XM_001108923.3 fused to human IgG1 Fc domain) (rhesus monkey; human, UniProt P18627 23-450).
T5 construct: not shown: human IgG1 Fc domain
T5 chain: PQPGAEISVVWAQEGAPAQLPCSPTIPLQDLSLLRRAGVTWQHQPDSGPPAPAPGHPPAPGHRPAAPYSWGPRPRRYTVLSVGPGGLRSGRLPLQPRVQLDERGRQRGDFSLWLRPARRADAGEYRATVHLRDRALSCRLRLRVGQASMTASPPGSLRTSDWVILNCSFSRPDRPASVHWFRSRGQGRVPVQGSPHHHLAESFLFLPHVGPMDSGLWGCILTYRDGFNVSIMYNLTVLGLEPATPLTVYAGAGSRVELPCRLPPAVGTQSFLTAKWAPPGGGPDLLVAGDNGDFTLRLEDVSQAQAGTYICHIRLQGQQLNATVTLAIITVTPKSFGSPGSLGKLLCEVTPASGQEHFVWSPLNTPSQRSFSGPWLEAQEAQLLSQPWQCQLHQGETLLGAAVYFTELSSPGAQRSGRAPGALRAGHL
Kind of assay: BLI ForteBio Octet RED 96, biotin labeled antibody on streptavidin sensor, antigen 3.125-100 nM, 1:1 fit. For orientation: BLI is a label-free optical method that tracks binding on a fibre tip over time.

The target of assay [9] is T1, Human LAG-3 protein (Cat#LA3-5222, …). Described as above.
In assay [10] the target is cynomolgus monkey LAG-3 protein (Cat#LA3-C52A0, Acrobiosystems) (cynomolgus monkey). The description is as above.
Assay [11] addresses T6, Recombinant LAG-3 domain 1-2 (Amino acid 1-262) fused to human IgG1 Fc domain (human, UniProt P18627 23-262).
T6 construct: also called domain 1-2 of human LAG-3; not shown: human IgG1 Fc domain
T6 sequence: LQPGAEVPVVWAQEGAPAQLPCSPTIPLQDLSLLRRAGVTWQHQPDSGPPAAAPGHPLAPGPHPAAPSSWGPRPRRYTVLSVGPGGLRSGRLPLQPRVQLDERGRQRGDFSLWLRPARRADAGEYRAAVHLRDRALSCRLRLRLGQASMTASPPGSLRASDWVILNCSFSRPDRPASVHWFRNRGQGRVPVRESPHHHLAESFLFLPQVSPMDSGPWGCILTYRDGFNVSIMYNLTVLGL
The assay is described as follows: ELISA, human LAG-3 domain 1-2 Fc fusion immobilized, serially diluted antibody, anti-human F(ab')2-HRP, OD450-620.

B1: clone 8# as single chain Fv displayed on phage (scFv)
scFv: QVQLQESGGGVVRPGGSLRLSCAASGFTFDDYGMSWVRQAPGKGLEWVSGINWSGGSTYYADSVKGRSTISRDNSKNTLYLQMNSLRAEDTAVYYCATGGYWGQGTLVTVSSSGGSTITSYNVYYTKLSSSGTSYELTQPPSVSVSPGQTASITCSGDKLGDKYTSWYQQKPGQSPLLVIYQSTKRPSGIPERFSGSNSGDTATLTISGTQPMDEADYYCQAWDSSTAVFGGGTKLTVLG
In the case of B1, in assay [1], the binding result is reported as “binds”.

B2: anti-LAG-3 antibody 6# (antibody, human IgG4 S228P, lambda, V domains shown)
VH: QVQLVQSGGGVVQPGRSLRLPCAASGFTFSSYGMHWVRQAPGKGLEWVAAISYDGSNKYYADSVKGRFTISRDNSKNTLYLQMNSLRAEDTAVYYCAREGSYYLEGIDYWGQGTLVTVSS
VL: QSVLTQPPSVSEAPRQRVTISCSGSSSNIGDNAVNWYQQLPGKAPTLLIYYDDLLPSGVPDRFSGSKSGTSASLAISGLQSEDEAEYYCAAWDDSLKGYVFGTGTKLTVLG
notes: also called Clone 6#; Clone 6
As for B2, the binding result in [2] is “no binding (tested: about 20 nM)”. For the same molecule, in assay [3], binding was put at a Kd of 38.4 nM; the koff (commonly a measure of how fast the partners let go of each other) is 0.000943 s⁻¹; the kon (as a rule, the second-order rate constant of association) is 24600 M⁻¹ s⁻¹. Also, the binding result in assay [4] is “no binding (tested: about 10 nM)”.

B3: anti-LAG-3 antibody 2# (antibody, V domains shown)
VH: QVQLQESGGGVVRPGGSLRLSCAASGFTFDDYGMSWVRQAPGKGLEWVSGINWSGGSTYYADSVKGRSTISRDNSKNTLYLQMNSLRAEDTAVYYCATGGYWGQGTLVTVSS
VL: not shown
notes: elsewhere IgG4 is preferred; also called Clone 2#; clone #2
On to B3, for which the EC50 (in general, the concentration needed to bring the measured effect to its halfway point) in assay [5] stood at 0.105 nM; in [11], 0.228 nM. Moreover, the IC50 (in general, the concentration needed to halve the response being measured) in assay [6] is 6.48 nM; in assay [7] it was 11.5 nM. The binding result in [2] was “no binding (tested: about 20 nM)”; in assay [4] it was “no binding (tested: about 10 nM)”. Also, the Kd (usually the constant that tells how readily two partners part at equilibrium) in [3] was determined as 0.348 nM; in [8] it was 1.22 nM; in [9], 0.13 nM; in assay [10] it was 1.27 nM. For the same molecule, the koff in [3] was determined as 0.00062 s⁻¹; in assay [8] it was 0.000676 s⁻¹; in assay [9], 3.65e-05 s⁻¹; in [10], 0.00058 s⁻¹. For the same molecule, the kon in assay [3] is 1.78e+06 M⁻¹ s⁻¹; in [8] it was 554000 M⁻¹ s⁻¹; in assay [9], 280000 M⁻¹ s⁻¹; in assay [10] it was 457000 M⁻¹ s⁻¹.

B4: anti-LAG-3 antibody 13# (antibody, human IgG4 S228P, lambda, V domains shown)
VH: B3 VH
VL: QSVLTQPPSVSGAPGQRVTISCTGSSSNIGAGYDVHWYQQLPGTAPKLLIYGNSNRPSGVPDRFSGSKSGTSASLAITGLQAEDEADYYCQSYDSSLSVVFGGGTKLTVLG
notes: The VH is the same as that of clone 8; also called Clone 13#; Clone 13
As for B4, the EC50 in [5] was determined as 0.509 nM. The binding result in [2] is on record as “no binding (tested: about 20 nM)”. In assay [3], binding was put at a Kd of 486 nM, the koff is 0.0448 s⁻¹ and the kon was 92200 M⁻¹ s⁻¹. Further, in assay [4], the binding result was “no binding (tested: about 10 nM)”. Moreover, the EC50 in assay [11] was 1.46 nM.

B5: anti-LAG-3 antibody 8# (antibody, human IgG4 S228P, lambda, V domains shown)
VH: B3 VH
VL: SYELTQPPSVSVSPGQTASITCSGDKLGDKYTSWYQQKPGQSPLLVIYQSTKRPSGIPERFSGSNSGDTATLTISGTQPMDEADYYCQAWDSSTAVFGGGTKLTVLG
notes: also called Clone 8#; Clone 8
Consider B5, for which the EC50 in [5] is 0.637 nM. For the same molecule, the binding result in assay [2] is recorded as “no binding (tested: about 20 nM)”. In [3], this molecule yielded a Kd of 2.08 nM, a koff of 0.000298 s⁻¹ and a kon of 143000 M⁻¹ s⁻¹. The half-maximal inhibitory concentration (IC50) in assay [7] stood at 31.5 nM. In addition, in assay [4], the binding result is given as “no binding (tested: about 10 nM)”. Moreover, the EC50 in [11] was 1.99 nM.

B6: clone 6# as single chain Fv displayed on phage (scFv)
scFv: QVQLVQSGGGVVQPGRSLRLPCAASGFTFSSYGMHWVRQAPGKGLEWVAAISYDGSNKYYADSVKGRFTISRDNSKNTLYLQMNSLRAEDTAVYYCAREGSYYLEGIDYWGQGTLVTVSSSGGSTITSYNVYYTKLSSSGTQSVLTQPPSVSEAPRQRVTISCSGSSSNIGDNAVNWYQQLPGKAPTLLIYYDDLLPSGVPDRFSGSKSGTSASLAISGLQSEDEAEYYCAAWDDSLKGYVFGTGTKLTVLG
Regarding B6, the binding result in [1] is listed as “binds”.
